Source: paper PMC4137731, “C-Terminal Domain Swapping of SSB Changes the Size of the ssDNA Binding Site”

B1: dT60 (ssDNA)
DNA: TTTTTTTTTTTTTTTTTTTTTTTTTTTTTTTTTTTTTTTTTTTTTTTTTTTTTTTTTTTT
B2: dT55 (ssDNA)
DNA: TTTTTTTTTTTTTTTTTTTTTTTTTTTTTTTTTTTTTTTTTTTTTTTTTTTTTTT

Experiments:
Settings in all cases: protein: recombinant; tags: none (untagged); chain copies: 4; label: 5' 32P
[1] = molecular target: T1, KpSSBnPaSSBc (Klebsiella pneumoniae subsp. pneumoniae …, UniProt A6TGW7 1-91+P40947:91-165, internal_change); assay: EMSA; monomer conc.; 1 complex; 20 mM Tris-HCl pH 8.0, 100 mM NaCl, 25°C 30 min, 1.7 nM DNA, protein 0-5000 nM; native 8% PAGE in TBE at 4°C
[2] = molecular target: T2, KpSSBnStSSBc (Klebsiella pneumoniae subsp. pneumoniae …, UniProt A6TGW7 1-91+P0A2F6:92-176, internal_change); assay: as above
[3] = molecular target: T2, KpSSBnStSSBc; assay: EMSA; monomer conc.; 2 complexes; 20 mM Tris-HCl pH 8.0, 100 mM NaCl, 25°C 30 min, 1.7 nM DNA, protein 0-5000 nM; native 8% PAGE in TBE at 4°C
[4] = molecular target: T1, KpSSBnPaSSBc; assay: EMSA; no complex observed up to 5000 nM; 20 mM Tris-HCl pH 8.0, 100 mM NaCl, 25°C 30 min, 1.7 nM DNA, protein 0-5000 nM; native 8% PAGE in TBE at 4°C
[5] = molecular target: T1, KpSSBnPaSSBc; assay: EMSA; monomer conc.; 2 complexes; 20 mM Tris-HCl pH 8.0, 100 mM NaCl, 25°C 30 min, 1.7 nM DNA, protein 0-5000 nM; native 8% PAGE in TBE at 4°C

Row | Binder | apparent K (half saturation) [1] [nM] | apparent K (half saturation) [2] [nM] | other results
1 | TTTTTTTTTTTTTTTTTTTTTTTTTTTTTTTTTTTTTTTT (ssDNA) [dT40] | 220 ± 30 | 120 ± 20 | –
2 | TTTTTTTTTTTTTTTTTTTTTTTTTTTTTTTTTTTTTTTTTTTTT (ssDNA) [dT45] | – | – | apparent K (half saturation) [3]: 160 ± 20 nM
3 | TTTTTTTTTTTTTTTTTTTT (ssDNA) [dT20] | – | 110 ± 20 | binding result [4]: no binding
4 | TTTTTTTTTTTTTTT (ssDNA) [dT15] | – | 260 ± 60 | –
5 | B1 | – | – | apparent K (half saturation) [5]: 230 ± 30 nM
6 | B2 | 230 ± 30 | – | –
7 | TTTTTTTTTTTTTTTTTTTTTTTTT (ssDNA) [dT25] | 390 ± 60 | – | –
